Experimental data: patent US20240166742A1, “MOLECULES THAT BIND TO AND STABILIZE TRIGGERING RECEPTOR EXPRESSED ON MYELOID CELLS 2 (TREM2)” (Novartis AG, priority 2015, published 2024)
[NapdU] = code of the source, not defined here

Columns and labels:
[1] = biological target: T1, cell surface human TREM2 on CHO-hTREM2 cells (Homo sapiens, UniProt Q9NZC2); experiment: TREM2 surface stabilization by SOMAmers on CHO-hTREM2 cells (flow cytometry); format: cell-based; conditions: 37° C. for 3 hours
T1 construct: expressed in transfected cells; host or cells: CHO cells, stably double transfected (G418 / hygromycin)
Description: A HEK cell line stably expressing a chimeric receptor consisting of TREM2-extracellular domain and DAP12 was first described by Kleinberger et al. 2014. In analogy a TREM-2/DAP12 chimeric receptor expressing cell line was produced according to standard cell culture procedures. CHO cells were sequentially transfected with eukaryotic expression vectors for human DAP12 (hDAP12) and human TREM2 (hTREM2). Resulting CHO-hTREM2/hDAP12 double transfected cells (CHO-hTREM2) were grown in DMEM/F12 medium supplemented with 10% fetal bovine serum 0.2 mg/ml G418 and 0.2 mg/mL hygromycin. Confluent adherent CHO cells were harvested after treatment with cell dissociation buffer (Gibco 13151-014) and cell surface TREM2 was quantified by flow cytometry as described below. […]
TREM2 SOMAmers were tested for their ability to stabilize or increase cell surface human TREM2, e.g., by modulating homeostatic dynamics of shedding or internalization. […] Cells were then assessed for surface human TREM2 by flow cytometry.

[2] = biological target: T1, cell surface human TREM2 on CHO-hTREM2 cells; experiment: Binding of biotinylated SOMAmers to cellular TREM2 by flow cytometry; format: cell-based; conditions: CHO-hTREM2 vs CHO control cells; on ice; streptavidin-APC detection
Description: A HEK cell line stably expressing a chimeric receptor consisting of TREM2-extracellular domain and DAP12 was first described by Kleinberger et al. 2014. In analogy a TREM-2/DAP12 chimeric receptor expressing cell line was produced according to standard cell culture procedures. CHO cells were sequentially transfected with eukaryotic expression vectors for human DAP12 (hDAP12) and human TREM2 (hTREM2). Resulting CHO-hTREM2/hDAP12 double transfected cells (CHO-hTREM2) were grown in DMEM/F12 medium supplemented with 10% fetal bovine serum 0.2 mg/ml G418 and 0.2 mg/mL hygromycin. Confluent adherent CHO cells were harvested after treatment with cell dissociation buffer (Gibco 13151-014) and cell surface TREM2 was quantified by flow cytometry as described below.
Binding of SOMAmers to cellular TREM2 was assessed by incubation of biotinylated SOMAmers at various concentrations with CHO-hTREM2 cells. In this case binding of SOMAmers to cell surface TREM2 was done on ice for 20-30 min to prevent modulation of cell surface TREM2. […] Cells were thereafter washed with FACS buffer and bound biotinylated SOMAmers were detected via streptavidin-APC conjugate (Biolegend, Inc). Median fluorescence intensities corresponding to the degree of TREM2 SOMAmer bound to cells were acquired on a FacsCalibur flow cytometer and evaluated using FlowJo (Millipore INC).

[3] = biological target: T2, cell surface human TREM2 on primary human M2a macrophages (Homo sapiens, UniProt Q9NZC2); experiment: TREM2 surface stabilization by SOMAmers on primary human M2a macrophages (flow cytometry); format: cell-based; conditions: 37° C. for 3 hours
T2 construct: Human M2a macrophages were generated from monocytes isolated from buffy coats; endogenous in cells; host or cells: primary human M2a macrophages differentiated from buffy-coat monocytes (MCSF + IL4)
T2 sequence (Q9NZC2 19-230): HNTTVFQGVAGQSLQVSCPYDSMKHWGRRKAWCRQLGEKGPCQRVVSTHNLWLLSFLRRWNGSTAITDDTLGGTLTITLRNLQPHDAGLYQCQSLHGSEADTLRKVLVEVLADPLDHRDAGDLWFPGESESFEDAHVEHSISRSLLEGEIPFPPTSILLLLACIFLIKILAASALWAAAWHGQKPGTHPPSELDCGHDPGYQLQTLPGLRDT
Description: Human M2a macrophages were generated from monocytes isolated from buffy coats by negative selection. M2a macrophages were generated by 5-6 days differentiation of monocytes in RPMI (supplemented 10% fetal bovine serum, and typical concentrations of Glutamax, Sodium pyruvate, Non Essential Amino Acids, HEPES) with MCSF 40 ng/mL (R&D) and 50 ng/mL IL4 (R&D). M2a macrophages were harvested with cell dissociation buffer (Gibco 13151-014) and cell surface TREM2 was assessed by flow cytometry as described below.
Cells were stained for TREM2 surface expression in FACS buffer (PBS, containing 10% heat-inactivated human serum AB male (Invitromex), 0.05% w/v sodium azide, 5 mM EDTA, 1 mg/mL Privigen (Mg) in PBS using goat anti-human TREM2 (R&D) or an appropriate isotype control. Cells were counterstained with F(ab)′2 fragments of an rabbit anti-goat IgG polyclonal antibody conjugated with Alexa488 (LifeTechnologies). All stainings were performed on ice for 30 min Cells were assessed for TREM2 surface expression on a BD LSR Fortessa or a FacsCalibur flow cytometer. Median fluorescence intensities corresponding to the degree of anti-TREM2 bound to cells were evaluated using FlowJo (Millipore INC)
TREM2 SOMAmers were tested for their ability to stabilize or increase cell surface human TREM2, e.g., by modulating homeostatic dynamics of shedding or internalization. […]

[4] = biological target: T3, human TREM2 stalk region Peptide 80
T3 chain: ESESFEDAHVEH

[5] = biological target: T4, human TREM2 stalk region Peptide 78
T4 chain: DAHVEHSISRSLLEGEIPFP

[6] = biological target: T5, human TREM2 stalk region Peptide 76
T5 chain: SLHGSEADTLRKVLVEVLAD

[7] = biological target: T6, human TREM2 stalk region Peptide 77
T6 chain: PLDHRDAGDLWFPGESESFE

[8] = biological target: T7, human TREM2 stalk region Peptide 79
T7 chain: VEVLADPLDHRD

T1 sequence (O43914 22-113 partner, one chain of several): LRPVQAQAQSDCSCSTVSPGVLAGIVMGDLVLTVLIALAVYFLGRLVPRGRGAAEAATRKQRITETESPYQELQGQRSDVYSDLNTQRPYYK

UX95-90BC: TREM2 SOMAmer (slow off-rate modified aptamer), core sequence SEQ ID NO: 12, P = NapdU modified dUTP residue (DNA CCCTCGAUCCGGUGGCGGAUCCUAAGUAUUGGCCCGGUCCGCCAAGAAGA; DNA, [NapdU] at 8, 13, 20, 23, 27, 29, 30, 38, backbone and methylation of C not given here; further chemistry not fully specified)
cell surface human TREM2 level (stabilization) [1]: stabilized and increased cell surface human TREM-2

EX83-95HC: control SOMAmer, core sequence SEQ ID NO: 14 (DNA CCCTCCCUAUCGCAAUGACACAUUGGGGUCUCGAGGUGCGCGAUCGAAGA; DNA, [NapdU] at 8, 10, 16, 23, 24, 29, 31, 37, 44, backbone and methylation of C not given here; further chemistry not fully specified)
binding to cell surface human TREM2 [2]: did not bind to cell surface human TREM2

KX86-94WC: TREM2 SOMAmer, core sequence SEQ ID NO: 13, P = NapdU modified dUTP residue (DNA CCCTCUGUCAACCUCCACACAGGCCUUUGAUGCAAGUAUACAGUGGAAGA; DNA, [NapdU] at 6, 8, 14, 26, 27, 28, 31, 37, 39, 44, backbone and methylation of C not given here; further chemistry not fully specified)
cell surface human TREM2 level (stabilization) [3]: stabilized cell surface human TREM2 | cell surface human TREM2 level (stabilization) [1]: stabilized cell surface human TREM2

B1: Human TACE (ADAM-17) recombinant catalytic domain (protein)
chain: RADPDPMKNTCKLLVVADHRFYRYMGRGEESTTTNYLIELIDRVDDIYRNTSWDNAGFKGYGIQIEQIRILKSPQEVKPGEKHYNMAKSYPNEEKDAWDVKMLLEQFSFDIAEEASKVCLAHLFTYQDFDMGTLGLAYVGSPRANSHGGVCPKAYYSPVGKKNIYLNSGLTSTKNYGKTILTKEADLVTTHELGHNFGAEHDPDGLAECAPNEDQGGKYVMYPIAVSGDHENNKMFSNCSKQSIYKTIESKAQECFQERSNKV
TACE cleavage of the Mca-labelled peptide (HPLC/HRMS) [4]: no TACE cleavages were observed for Peptides 76, 79, 77 and 80 | TACE cleavage of the Mca-labelled peptide (HPLC/HRMS) [5]: For Peptide 78, two main cleavage products by TACE were found: DAHVEH (termed X01, SEQ ID NO: 25) and SISRSLLEGEIPFP (termed X02, SEQ ID NO: 26) | TACE cleavage of the Mca-labelled peptide (HPLC/HRMS) [6]: no TACE cleavages were observed for Peptides 76, 79, 77 and 80 | TACE cleavage of the Mca-labelled peptide (HPLC/HRMS) [7]: no TACE cleavages were observed for Peptides 76, 79, 77 and 80 | TACE cleavage of the Mca-labelled peptide (HPLC/HRMS) [8]: no TACE cleavages were observed for Peptides 76, 79, 77 and 80
